Patent publication US10501734B2, “Compositions and methods of use thereof for making polypeptides with many instances of nonstandard amino acids” (Yale University, priority 2014, dated 2019)
Changes are numbered by the printed parent chain. Names may count otherwise. “Also recorded” adds a separate entry of the source.

B1: pAcFRS.1.t1: pAcFRS variant A167D, R257G, SEQ ID NO: 5 (protein)
chain: MDEFEMIKRNTSEIISEEELREVLKKDEKSALIGFEPSGKIHLGHYLQIKKMIDLQNAGFDIIILLADLHAYLNQKGELDEIRKIGDYNKKVFEAMGLKAKYVYGSEFQLDKDYTLNVYRLALKTTLKRARRSMELIAREDENPKVAEVIYPIMQVNGCHYRGVDVDVGGMEQRKIHMLARELLPKKVVCIHNPVLTGLDGEGKMSSSKGNFIAVDDSPEEIRAKIKKAYCPAGVVEGNPIMEIAKYFLEYPLTIKGPEKFGGDLTVNSYEELESLFKNKELHPMRLKNAVAEELIKILEPIRKRL
B2: pAcFRS: progenitor M. jannaschii based p-acetyl-L-phenylalanine AARS, SEQ ID NO:1 (Young, et al., 2010) (protein, listed as Methanocaldococcus jannaschii)
chain: B1 chain with D167A, G257R
B3: pAzFRS.2.t1: pAcFRS variant E107T, F108Y, Q109M, R257G, SEQ ID NO: 14 (protein)
chain: B1 chain with E107T, F108Y, Q109M, D167A
B4: pAcFRS.2.t1: pAcFRS variant L65V, A167D, R257G, SEQ ID NO: 8 (protein)
chain: B1 chain with L65V
B5: pAzFRS.1.t1: pAcFRS variant D158V, I159M, L162D, A167Y, R257G, SEQ ID NO: 11 (protein)
chain: MDEFEMIKRNTSEIISEEELREVLKKDEKSALIGFEPSGKIHLGHYLQIKKMIDLQNAGFDIIILLADLHAYLNQKGELDEIRKIGDYNKKVFEAMGLKAKYVYGSEFQLDKDYTLNVYRLALKTTLKRARRSMELIAREDENPKVAEVIYPIMQVNVMHYDGVDVYVGGMEQRKIHMLARELLPKKVVCIHNPVLTGLDGEGKMSSSKGNFIAVDDSPEEIRAKIKKAYCPAGVVEGNPIMMEIAKYFLEYPLTIKGPEKFGGDLTVNSYEELESLFKNKELHPMRLKNAVAEELIKILEPIRKRL

Tests used:
[1] = test system: GFP(3TAG); experiment: nsAA library screening, GFP(3TAG) fluorescence in 384 well plates; format: cell-based, E. coli; details: GFP(3TAG) production in the presence of pAcF, pAzF and 236 other nsAAs
Description: Liquid cell cultures of strains harboring chromosomally integrated OTSs and GFP reporter plasmids were inoculated from frozen stocks and grown to confluence overnight. Cultures were then inoculated at 1:20 dilution in LBmin media supplemented with 30 μg/ml kanamycin. Strains were inoculated by addition of 1:20 confluent cell culture (grown overnight) and allowed to grow at 34° C. to an OD600 of 0.5-0.8 in a shaking plate incubator at 650 r.p.m (˜3 h). AARS expression was then induced by the addition of 0.2% arabinose, GFP expression was induced by the addition of 60 ng/ul anhydrotetracycline, and the appropriate nsAA was added to a concentration of 1 mM. Cells were incubated at 34° C. for an additional 16 h. Liquid cell cultures of strains harboring plasmid-based OTSs and GFP or ELP-GFP reporter plasmids were inoculated from frozen stocks and grown to confluence overnight. Cultures were then inoculated at 1:20 dilution in 2×YT media supplemented with 30 μg/ml kanamycin and 20 μg/ml chloramphenicol. […] Cells were allowed to grow at 34° C. to an OD600 of 0.5-0.8 in a shaking plate incubator at 650 r.p.m (˜3 h), reporter protein expression was then induced by the addition of 60 ng/ul anhydrotetracycline, and cells were incubated at 34° C. for an additional 16 h.
For 384 well plate-based assays, fluorescence and OD600 were directly measured following expression. For 96 well plate-based assays, cells were centrifuged at 4,000 g for 4 min. Supernatant medium was removed and cells were resuspended in PBS. This process was repeated twice with PBS. GFP fluorescence was measured on a Biotek spectrophotometric plate reader using excitation and emission wavelengths of 395 and 509 nm, respectively). Fluorescence signals were normalized by dividing the fluorescence counts by the OD600 reading. The nsAAs used in this study were purchased from Sigma-Aldrich (St. Louis, Mo.), Chemlmpex (Wood Dale, Ill.), and Bachem (Torrance, Calif.). Solutions of nsAAs (50 mM) were made in water or 50 mM NaOH; these stock solutions were diluted 50- or 100-fold (to 1 mM final concentration) into medium used for bacterial growth. […]

[2] = test system: TAG codons; experiment: MRM mass spectrometry quantitation of nsAA incorporation in ELP-GFP; set-up: species or system E. coli; details: for pAcF (Y) / pAcF: calculated as 100%−Y %−F %; for near cognate suppression and mischarging events of K, P, L/I, and Q: content in proteins produced
Description: Purified ELP-GFP protein was dissolved by vortex in protein solubilization buffer (15 mM Tris-HCl, 1.5 mM EDTA, pH=8.5) and the protein concentration was determined by UV280. Solubilization buffer was then added to adjust the concentration of the protein stock solutions to 2.0 μg/μl. For protein digestion, 12.5 μl of this solution (25 μg) was supplemented with 3.125 μl freshly prepared digestion buffer 5×. The composition of the digestion buffer 5× was: 50 mM Tris-HCl pH=8.5, 5 mM EDTA, 50 mM DTT and 2.5% (w/v) freshly prepared acid labile surfactant II (ALS II). Proteins were thermally denatured in a heat block at 95° C. for 5 min and the reaction was then quenched on ice. To alkylate the cysteines, 2.5 μl of 1 M Tris-HCl buffer (pH=8.5) and 5.83 μl freshly prepared 100 mM IAA solution were added. The reaction proceeded for 30 min at room temperature and in the dark. Excess IAA was quenched with 0.875 μl of 200 mM aqueous DTT solution. Next, 1.25 μl LysC enzyme solution, prepared at 7.0×10^−4 activity units/μl in water, were added and protein was digested for 4 h at 37° C. in an incubator without shaking. The digest was supplemented with 157.77 μl 105.6 mM Tris-HCl pH=8.5 buffer containing 5.28 mM CaCl2. For digestion with trypsin, 3.6 μl sequencing grade porcine trypsin (Promega), provided as solution with 0.5 μg/μl trypsin, was added and digestion proceeded for 15 h at 37° C. in an incubator without shaking. The digest was quenched by adding 15.63 μl 20% TFA solution. The pH value of the digest was tested with pH indicator paper to ensure that the pH value was between a value of 1 and 2 to ensure efficient cleavage conditions for ALSII. Detergent was hydrolyzed for 15 min at 23° C. and peptides were desalted using C18 UltraMicroSpin columns (The Nest Group, Southborough, Mass.) following the instructions provided with the columns. Eluted peptides solutions were dried in a vacuum centrifuge which was operated at 45° C. The dried peptides were then dissolved by vortex in 11 μl peptide solvent consisting of 2:3:7 by volume 70% FA, 1-propanol and 0.5% acetic acid. The peptide concentration was determined by UV280 enabling equal loading for LC-MS. Peptide stock solutions were frozen at −80° C. until use. For shotgun proteomic analysis, peptide stock solutions were diluted to a concentration of 60 ng/μl in 3:8 by volume 70% formic acid 0.1 TFA and 5 μl corresponding to 300 ng total peptides were injected for each analysis.
The C-terminally labeled stable isotope labeled peptides (lysine (^13C6^15N2) or arginine (^13C6^15N4)) VPGAGVPGYGVPGVGK, VPGAGVPGFGVPGVGK and FEGDTLVNR were obtained as a lyophilized powder supplied as 1 nmol aliquots. Peptides were dissolved in 30% acetonitrile 0.1% formic acid at a concentration of 20 pmol/μl. Standards were then combined to obtain a master mix with 6.666 pmol/μl of each peptide. Dilution of peptide standards and protein digest for MRM was performed in Agilent polypropylene sample vials with MRM solvent consisting of 100 ng/μl sodium deoxycholate in 3:7 by volume DMSO/0.1% formic acid. Calibration of the instrument was performed with a 11 point calibration curve with 0, 1, 2, 5, 10, 20, 50, 100, 200, 500 and 1000 fmol peptide injected. Peptide stock solutions from the digestion of ELP-GFP were prepared at 5 ng/μl in MRM solvent containing 50 fmol/μl of the stable isotope labeled peptides. MRM solvent blank injections between sample injections and quality control standards analyzed before and after sample injection ensured consistent performance of the MRM platform.
Shotgun discovery data from the analysis of stable isotope labeled peptides and ELP-GFP digests were imported into Skyline^2 software v. 2.5 to extracted suitable transitions for MRM quantitation of peptides. A detailed description of this workflow will be reported somewhere else^3. Briefly, at least 3 transitions were extracted for peptides reporting incorporation of natural and unnatural amino acids at the position of the stop codon. […]

[3] = ELP(10TAG)-GFPMS, nsAA added pAcF
[4] = ELP(30TAG)-GFPMS, nsAA added pAcF
[5] = ELP(10TAG)MS-ELP(20TAG)-GFP, nsAA added pAcF
[6] = ELP(20TAG)-ELP(10TAG)MS-GFP, nsAA added pAcF
[7] = ELP(10TAG)-GFPMS, nsAA added pAzF, N = 3

Molecule	nsAA specificity (polyspecificity) [1]	F at TAG position [2, 3]	Y at TAG position [2, 3]	pAcF (Y) [2, 3]	F at TAG position [2, 4]	Y at TAG position [2, 4]	pAcF [2, 4]	near cognate suppression and mischarging events of K, P, L/I, and Q [2]	F at TAG position ([2]; ELP(10TAG)-GFPMS, No nsAA)	Y at TAG position ([2]; ELP(10TAG)-GFPMS, No nsAA)	pAcF (Y) ([2]; ELP(10TAG)-GFPMS, No nsAA)	F at TAG position [2, 5]	Y at TAG position [2, 5]	pAcF [2, 5]	F at TAG position [2, 6]	Y at TAG position [2, 6]	pAcF [2, 6]	F at TAG position [2, 7]	Y at TAG position [2, 7]
B1	polyspecifity for at least pAcF, pAzF, StyA, 4IF, 4BrF, 4ClF, 4MeF, 4Cf3F, MeY, 4NO2F, 4BuF, BuY, 2NaA, PheF	0.26%	2.42%	97.32%	0.29%	1.53%	98.18%	striking decrease											
B2		0.36%	1.37%	98.26%	0.55%	1.14%	98.31%												
B3	polyspecific for at least pAcF, pAzF, StyA, 4IF, 4BrF, 4ClF, 4MeF, 4Cf3F, MeY, 4NO2F, 4BuF, BuY, 2NaA, PheF	2.45%	2.08%	95.47%	2.87%	1.78%	95.35%	striking decrease	55.35%	50.15%	−5.50%	3.74%	2.19%	94.06%	3.25%	2.17%	94.58%		
B4	polyspecifity for at least pAcF, pAzF, StyA, 4IF, 4BrF, 4ClF, 4MeF, 4Cf3F, MeY, 4NO2F, 4BuF, BuY, 2NaA, PheF																		
B5	specific for pAzF; also recorded: exceptional specificity toward pAzF with almost complete exclusion of any other nsAA																	3.34%	0.13%
